# Laboratory results published in US20240132578A1.
# Legend:
# Test in all cases: cell-based or functional assay
# [1] = target: HIV-1 Env of isolate MGRM-G-019 (subtype G), on pseudovirus (HIV-1)
# [2] = target: HIV-1 Env of isolate 93TH305 (subtype B) (HIV-1)
# [3] = target: HIV-1 Env of isolate APV 6 (subtype B) (HIV-1)
# [4] = target: HIV-1 Env of isolate MGRM-G-017 (subtype G), on pseudovirus (HIV-1)
# [5] = target: HIV-1 Env of isolate MGRM-G-024 (subtype G), on pseudovirus (HIV-1)
# [6] = target: HIV-1 Env of isolate MGRM-G-015 (subtype G), on pseudovirus (HIV-1)
# [7] = target: HIV-1 Env of isolate MGRM-G-006 (subtype G), on pseudovirus (HIV-1)
# [8] = target: HIV-1 Env of isolate MGRM-G-014 (subtype G), on pseudovirus (HIV-1)
# [9] = target: HIV-1 Env of isolate MGRM-G-013 (subtype G), on pseudovirus (HIV-1)
# [10] = target: HIV-1 Env of isolate MGRM-G-009 (subtype G), on pseudovirus (HIV-1)
# [11] = target: aMLV envelope, on pseudovirus (negative control)
# [12] = target: HIV-1 Env of isolate APV_17 (subtype B) (HIV-1)
# [13] = target: HIV-1 Env of isolate MGRM-G-011 (subtype G), on pseudovirus (HIV-1)
# [14] = target: HIV-1 Env of isolate MGRM-G-025 (subtype G), on pseudovirus (HIV-1)
# [15] = target: HIV-1 Env of isolate MGRM-G-016 (subtype G), on pseudovirus (HIV-1)
# [16] = target: HIV-1 Env of isolate MGRM-G-001 (subtype G), on pseudovirus (HIV-1)
# [17] = target: HIV-1 Env of isolate MGRM-G-028 (subtype G), on pseudovirus (HIV-1)
# [18] = target: HIV-1 Env of isolate MGRM-G-027 (subtype G), on pseudovirus (HIV-1)
# [19] = target: HIV-1 Env of isolate MGRM-G-004 (subtype G), on pseudovirus (HIV-1)
# [20] = target: HIV-1 Env of isolate 6535.3 (subtype B) (HIV-1)
# [21] = target: HIV-1 Env of isolate 92BR020 (subtype B) (HIV-1)
# [22] = target: HIV-1 Env of isolate APV 13 (subtype B) (HIV-1)
# [23] = target: HIV-1 JR-CSF Env R480A (HIV-1 JR-CSF) (UniProt P20871)
binder,measurement,setting,value
"PGT-128 (antibody, V domains shown) VH: QPQLQESGPTLVEASETLSLTCAVSGDSTAACNSFWGWVRQPPGKGLEWVGSLSHCASYWNRGWTYHNPSLKSRLTLALDTPKNLVFLKLNSVTAADTATYYCARFGGEVLRYTDWPKPAWVDLWGRGTLVTVSS VL: QSALTQPPSASGSPGQSITISCTGTSNNFVSWYQQHAGKAPKLVIYDVNKRPSGVPDRFSGSKSGNTASLTVSGLQTDDEAVYYCGSLVGNWDVIFGGGTKLTVL","IC50 (µg/mL), neutralization of pseudovirus",[1],0.01 µg/mL
same,"IC50 (µg/mL), pseudovirus neutralization",[2],0.006 µg/mL
same,"IC50 (µg/mL), pseudovirus neutralization",[3],0.007 µg/mL
same,"IC50 (µg/mL), neutralization of pseudovirus",[4],0.319 µg/mL
same,"IC50 (µg/mL), neutralization of pseudovirus",[5],0.095 µg/mL
same,"IC50 (µg/mL), neutralization of pseudovirus",[6],> 50 µg/mL
same,"IC50 (µg/mL), neutralization of pseudovirus",[7],> 50 µg/mL
same,"IC50 (µg/mL), neutralization of pseudovirus",[8],0.004 µg/mL
same,"IC50 (µg/mL), neutralization of pseudovirus",[9],0.995 µg/mL
same,"IC50 (µg/mL), neutralization of pseudovirus",[10],> 50 µg/mL
same,"IC50 (µg/mL), neutralization of pseudovirus",[11],> 50 µg/mL
same,"IC50 (µg/mL), pseudovirus neutralization",[12],0.016 µg/mL
same,"IC50 (µg/mL), neutralization of pseudovirus",[13],8.21 µg/mL
same,"IC50 (µg/mL), neutralization of pseudovirus",[14],0.017 µg/mL
same,"IC50 (µg/mL), neutralization of pseudovirus",[15],> 50 µg/mL
same,"IC50 (µg/mL), neutralization of pseudovirus",[16],0.019 µg/mL
same,"IC50 (µg/mL), neutralization of pseudovirus",[17],0.008 µg/mL
same,"IC50 (µg/mL), neutralization of pseudovirus",[18],0.313 µg/mL
same,"IC50 (µg/mL), neutralization of pseudovirus",[19],> 50 µg/mL
same,"IC50 (µg/mL), pseudovirus neutralization",[20],0.011 µg/mL
same,"IC50 (µg/mL), pseudovirus neutralization",[21],0.009 µg/mL
same,"IC50 (µg/mL), pseudovirus neutralization",[22],0.008 µg/mL
same,Fold IC50 increase relative to wild-type,[23],0.1 fold
